This passage reports binding result and Kd results from patent US20250084161A1 (BIOSCEPTRE AUST, published 2025).

The Kd is the concentration at which binding is half-saturated.

Assay [1] addresses T1, pDisplay-ECD2 on HEK293 cells (Homo sapiens (Human), UniProt Q99572 47-306).
T1 construct: also called ECD2 as pDisplay; not shown: N-terminal HA tag of pDisplay (told for ECD1); c-Myc tag and PDGFR transmembrane anchorage of pDisplay (told for ECD1)
T1 sequence: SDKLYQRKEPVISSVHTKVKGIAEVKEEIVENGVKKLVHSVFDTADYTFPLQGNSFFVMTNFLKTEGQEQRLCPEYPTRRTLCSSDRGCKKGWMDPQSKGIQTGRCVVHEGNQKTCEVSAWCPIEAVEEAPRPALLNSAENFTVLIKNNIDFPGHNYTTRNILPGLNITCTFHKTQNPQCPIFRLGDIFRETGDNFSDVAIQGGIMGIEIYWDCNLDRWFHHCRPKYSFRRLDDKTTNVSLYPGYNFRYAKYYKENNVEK
Briefly: flow cytometry, live HEK293E cells expressing pDisplay-ECD2 ('HEK293E-pDisplay ED'), dAb at 5 uM, detection with anti-human IgG Fab. (In flow cytometry, cells or beads pass a laser one at a time.)

The target in assay [2] is T2, E200 peptide.
T2 construct: Made by solid phase synthesis at Chiron Mimotopes; Which form (free, conjugated, biotinylated) was on the chip is told only for some experiments; also called peptide antigen E200; E200-biotin peptide
Briefly: Biacore using E200, dAb-Fc.

Assay [3] addresses T2, E200 peptide. Briefly: Biacore using E200 (10RU), dAb-Fc at 100 pM to 1 nM. In general terms: In SPR one partner is held on a chip, and binding of the other changes the refractive index at the surface.
The target in assay [4] is T3, ECD2, P2X7 receptor (47-306), soluble (Homo sapiens (Human), UniProt Q99572 47-306).
T3 construct: also called soluble ECD2; ECD2 domain
T3 sequence: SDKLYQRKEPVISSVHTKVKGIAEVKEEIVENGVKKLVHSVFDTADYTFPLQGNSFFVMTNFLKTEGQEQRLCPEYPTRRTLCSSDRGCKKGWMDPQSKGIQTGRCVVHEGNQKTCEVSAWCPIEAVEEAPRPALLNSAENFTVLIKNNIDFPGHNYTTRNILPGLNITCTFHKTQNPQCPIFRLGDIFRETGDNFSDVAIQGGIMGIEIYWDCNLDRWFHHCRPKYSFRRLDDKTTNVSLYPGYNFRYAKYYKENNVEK
Put plainly: Biacore against ECD2 in either solution form or as a ECD-Fc construct; Fc format; ECD2 in solution or as ECD-Fc, form not told.

Assay [5] has as its target T3, ECD2, P2X7 receptor (47-306), soluble. Briefly: Biacore, dAb domain without Fc; dAb domain, no Fc format.
For assay [6] the target is unchanged. Put plainly: Biacore against ECD2 in either solution form or as a ECD-Fc construct; Fc construct.
The target is the same in assay [7]. Briefly: single domain format; method not given.
The target is the same in assay [8]. Briefly: Biacore, labelled dAb domain at 5 and 2.5 nM; target taken as ECD2 from the sentence before; Alexa488-labelled dAb domain.
For assay [9] the target is unchanged. Put plainly: Biacore against ECD2 in either solution form or as a ECD-Fc construct; Fc format taken from context.
The target is the same in assay [10]. Briefly: Biacore, labelled dAb domain at 10 and 5 nM; target taken as ECD2 from the paragraph before; Alexa488-labelled dAb domain, different parent.
The target in assay [11] is T2, E200 peptide. Put plainly: Biacore, E200 peptide.

B1: 42.2 (other)
VH single domain (dAb): EVQMLESGGGLVQPGESLRLSCAASGFTFDNVEMSWVRQAPGKGLEWVSSIGSKGEYTYYADSVKGRFTISRDNSKNTLYLQMNSPRAEDTAVYYCAQTVNVPEPAFAYWGQGTLVTVSS
notes: also called PEP2-42-2; PEP2-42-2 dAb
In the case of B1, the binding result in assay [1] is on record as “binds”.

B2: PEP2-42 Fc (Fc fusion)
chain: EVQLLESGGGLVQPGGSLRLSCAASGFTFDNVEMSWVRQAPGKGLEWVSSIGSKGEDTYYADSVKGRFTISRDNSKNTLYLQMNSLRAEDTAVYYCAQTVNVPEPAFAYWGQGTLVTVSS
notes: Standard format dAb-Fc with human type IgG1 Fc subtype; also called 2-42 (PEP-Fc); not shown: human IgG1 Fc
Consider B2, for which the Kd in assay [2] came out at 5500 pM.

B3: 2.4 (other)
VH single domain (dAb): EVQLLESGGGLVQPGGSLRLTCAASGFSFRNHDMGWVRQAPGKGLEWVSAISGSGGSTYYADSVKGRFTISRDNSKNTLYLQMNSLRAEDTAVYYCAEPKPMDTEFDYRSPGTLVTVSS
notes: Read as PEP2-2-4, in line with '2' = PEP2-2 and '47.1' = PEP2-47-1; it is not PEP2-4; also called PEP2-2-4; PEP2-2-4 dAb
Regarding B3, the binding result in assay [1] was “binds”.

B4: PEP2-2-2 Fc (Fc fusion)
chain: EVQLLESGGGLVQPGGSLRLSCAASGFTFRNHDMGWVRQAPGKGLEWVSAISGSGGSTYYADSVKGRFTISRDNSKNTLYLQMNSLRAEDTAVYYCAEPKPMDTEFDYRSQGTLVTVSS
notes: Standard format dAb-Fc with human type IgG1 Fc subtype; also called 2-2-2 (PEP-Fc); not shown: human IgG1 Fc
Regarding B4, the affinity in assay [2], expressed as Kd, was 100 pM.

B5: PEP2-2-3 Fc (Fc fusion)
chain: EVQLLESGGGLVQPGGSLRLSCAASGFTFRNHDMGWVRQAPGKGLEWVSAISGSGGSTYYADSVKGRFTISRDNSKNTLYLQMNSLRAEDTAVYYCAEPKPMDTEFDYWSPGTLVTVSS
notes: Standard format dAb-Fc with human type IgG1 Fc subtype; also called 2-2-3 (PEP-Fc); not shown: human IgG1 Fc
With B5, the Kd was determined as 130 pM in assay [3] and 1500 pM in [4].

B6: PEP2-2-1-1 Fc (Fc fusion)
chain: EVQLLESGGGLVQPGGSLRLSCAASGFTFRNHDMGWVRQAPGKGLEWVSAISGSGGSTYYADSVKGRFTISRDNSKNTLYLQMNSLRAEDTAVYYCAEPKPMDTEFDYRSPGTLVTVSS
notes: Standard format dAb-Fc with human type IgG1 Fc subtype; also called 2-2-1-1 (PEP-Fc); not shown: human IgG1 Fc
B6 gave a Kd in assay [2] of 90 pM.

B7: PEP2-247-1 Fc (Fc fusion)
chain: EVQLLESGGGLVQPGGSLRLSCAASGFTFRNHDMGWVRQAPGKGLEWVSAISGSGGGTYYADSVKGRFTISRDNSKNTLYLQMNSLRAEDTAVYYCAEPSHFDRPFDYRSQGTLVTVSS
notes: Standard format dAb-Fc with human type IgG1 Fc subtype; also called 2-247-1 (PEP-Fc); 2-2/2-47-1 CDR crossover; not shown: human IgG1 Fc
In assay [2], B7 had a Kd of 190 pM.

B8: PEP2-247-2 Fc (Fc fusion)
chain: EVQLLESGGGLVQPGGSLRLSCAASGFTFRNHDMGWVRQAPGKGLEWVSAISGSGGSTYYANSVKGRFTISRDNSKNTLYLQMNSLRAEDTAVYYCAEPSHFDRPFDYRSQGTLVTVSS
notes: Standard format dAb-Fc with human type IgG1 Fc subtype; also called 2-247-2 (PEP-Fc); 2-2-1/2-47-1 CDR crossover; not shown: human IgG1 Fc
As to B8, binding in assay [2] was characterised by a dissociation constant (Kd) of 450 pM.

B9: 2.5 (other)
VH single domain (dAb): EVQLLESGGGLVQPGGSLRLSCAASGFTFRNHDMGWVRQAPGKGLEWVSAISGSGGSTYYADSVKGRFTISRDDSKNTLYLQMNSLRAEDTAVYYCAEPKPMDTEFDYRSPGTLVTVSS
notes: Read as PEP2-2-5; it is not PEP2-5; also called PEP2-2-5; PEP2-2-5 dAb
With B9, the binding result in assay [1] was “binds”.

B10: 47.1 (other)
VH single domain (dAb): EVQLLESGGGLVQPGGSLRLSCAASGYTFPMKDMGWVRQAPGKGLEWVSAISGSGGGTYYADSVKGRFTISRDNSKNTLYLQMNSLRAEDTAVYYCAEPSHFDRPFDYRSQGTLVTVSS
notes: also called PEP2-47-1; PEP2-47-1 dAb
Consider B10, for which the binding result in assay [1] was “binds”.

B11: PEP2-2-12 dAb domain (other)
VH: EVQLLESGGGLVQPGGSLRLSCAASGFTFRNHDMGWVRQAPGKGLEWVSAISGSGGSTYYANSVKGRFTISRDNSKNTLYLQMNSLRAEDTAVYYCAEPKPMDTEFDYPSPGTLVTVSS
notes: Human VH dAb domain, no Fc format
B11 came in with a Kd in assay [5] of 945 pM.

B12: PEP2-2-1 Fc (Fc fusion)
chain: EVQLLESGGGLVQPGGSLRLSCAASGFTFRNHDMGWVRQAPGKGLEWVSAISGSGGSTYYANSVKGRFTISRDNSKNTLYLQMNSLRAEDTAVYYCAEPKPMDTEFDYRSPGTLVTVSS
notes: Standard format dAb-Fc with human type IgG1 Fc subtype; also called PEP2-2-1 dAb-FC; not shown: human IgG1 Fc
B12: the affinity in [6], expressed as Kd, was 560 pM.

B13: PEP2-47 dAb (other)
VH: EVQLLESGGGLVQPGGSLRLSCAASGFTFPMKDMGWVRQAPGKGLEWVSAISGSGGSTYYADSVKGRFTISRDNSKNTLYLQMNSLRAEDTAVYYCAEPSHFDRPFDYWGQGTLVTVSS
notes: Human VH dAb, unformatted
For the molecule B13, in assay [7], the binding result is “binds”.

B14: PEP2-2-12Alexa488 domain (other)
VH: EVQLLESGGGLVQPGGSLRLSCAASGFTFRNHDMGWVRQAPGKGLEWVSAISGSGGSTYYANSVKGRFTISRDNSKNTLYLQMNSLRAEDTAVYYCAEPKPMDTEFDYPSPGTLVTVSS
modifications: Alexa488 label attached (site not stated)
notes: Human VH dAb domain, labelled; also called PEP2-2-12 with Alexa488 label
In assay [8], B14 gave a Kd of 174 pM.

B15: PEP2-472-1 Fc (Fc fusion)
chain: EVQLLESGGGLVQPGGSLRLSCAASGYTFPMKDMGWVRQAPGKGLEWVSAISGSGGGTYYADSVKGRFTISRDNSKNTLYLQMNSLRAEDTAVYYCAEPKPMDTEFDYRSQGTLVTVSS
notes: Standard format dAb-Fc with human type IgG1 Fc subtype; also called 2-47-1/2-2-2 CDR crossover; not shown: human IgG1 Fc
As for B15, the Kd in [2] was 90 pM; in [9] it was 584 pM.

B16: PEP2-472-12Alexa488 domain (other)
VH: EVQLLESGGGLVQPGGSLRLSCAASGYTFPMKDMGWVRQAPGKGLEWVSAISGSGGGTYYADSVKGRFTISRDNSKNTLYLQMNSLRAEDTAVYYCAEPKPMDTEFDYRSPGTLVTVSS
modifications: Alexa488 label attached (site not stated)
notes: Human VH dAb domain, labelled
As to B16, the Kd in assay [10] was 156 pM.

B17: PEP2-2-3 dAb (other)
VH: EVQLLESGGGLVQPGGSLRLSCAASGFTFRNHDMGWVRQAPGKGLEWVSAISGSGGSTYYADSVKGRFTISRDNSKNTLYLQMNSLRAEDTAVYYCAEPKPMDTEFDYWSPGTLVTVSS
notes: Human VH dAb, unformatted; also called unformatted dAb PEP2-2-3
Consider B17, for which the Kd in assay [11] came out at 7000 pM.

B18: PEP2-47 Fc (Fc fusion)
chain: EVQLLESGGGLVQPGGSLRLSCAASGFTFPMKDMGWVRQAPGKGLEWVSAISGSGGSTYYADSVKGRFTISRDNSKNTLYLQMNSLRAEDTAVYYCAEPSHFDRPFDYWGQGTLVTVSS
notes: Standard format dAb-Fc with human type IgG1 Fc subtype; also called 2-47 (PEP-Fc); not shown: human IgG1 Fc
As to B18, the Kd in assay [2] came out at 7500 pM.

B19: PEP2-47-1 Fc (Fc fusion)
chain: EVQLLESGGGLVQPGGSLRLSCAASGYTFPMKDMGWVRQAPGKGLEWVSAISGSGGGTYYADSVKGRFTISRDNSKNTLYLQMNSLRAEDTAVYYCAEPSHFDRPFDYRSQGTLVTVSS
notes: Standard format dAb-Fc with human type IgG1 Fc subtype; also called 2-47-1 (PEP-Fc); not shown: human IgG1 Fc
B19: in assay [2], the Kd came out at 110 pM.
